This passage reports Kd and stoichiometry N results from paper PMC3643604.

In general, Kd refers to a measure of binding affinity in units of concentration. A word on the stoichiometry N: it is the number of molecules, sites or subunits per partner or assembly.

This assay deals with MED25 ACID/PTOV domain (purified) (human). Briefly: ITC. (ITC needs no label: the signal is the heat of the interaction.)

With “ERM 38–68 peptide (from UniProt P41161 38-68)”, the Kd amounted to 543 nM and the stoichiometry N was 1.
